Measured values reported in patent US20220133913A1 (KOREA BASIC SCIENCE INSTITUTE, published 2022).
Numbering of substitutions follows the chain as printed.

B1: single-domain antibody VHH-25 containing lysin and His6 tags (VHH)
VHH: EVQLVESGGGSVQAGGSLRLSCVVSGYTCSVYDMIWYRQPPGKEREFVSLINSNGRTTYADSVKGRFTISQNNAKNTVYLQMNSLKPEDTAMYYCHAACYSPSRLNYWGQGTQVTVSS
notes: also called Nanobody #25-Lys; VHH-25-K1; not shown: C-terminal lysine tag and His6 tag with any linker
B2: VHH-11 (VHH)
VHH: DVQLVESGGGSVQPGESLRLSCVASGYTVSSSCMAWFRQAPGKEREVVATIVVTSDTTSTFYADSVKGRFTISPDNAKNTLNLQMNSLEPSDTAMYYCAADRKWNVCSRGYRYTPNWANQFTFWGQGTLVTVSS
notes: also called clone 11
B3: VHH-13 (VHH)
VHH: B2 VHH with D1H, L129Q
notes: also called clone 13
B4: VHH-15 (VHH)
VHH: B2 VHH with D1E, S91P, L129Q
notes: also called clone 15
B5: VHH-17 (VHH)
VHH: B2 VHH
notes: also called clone 17
B6: VHH-16 (VHH)
VHH: DVQLVESGGGSVQPGGSLRLSCAASGYTVENSCMAWFRQAPGKEREVVATIVTNNATGTFYADSVKGRFTVSQDNAKNTLNLQMNSLEPEDTAMYYCAADTKWIVCSRGYRYTPNWANQFKYWGQGTQVTVSS
notes: also called clone 16
B7: VHH-20 (VHH)
VHH: B6 VHH with E30D, G58S, Q73H, S86T, Q119H, K121N, Q128L
notes: also called clone 20
B8: VHH-22 (VHH)
VHH: B1 VHH with E1Q, Q113L
notes: also called clone 22
B9: VHH-23 (VHH)
VHH: HVQLVESGGGSVQTGGSLRLSCAASGYTSSTVYMAWFRQTPGKQREGVAAIYTGGGPTYYADSVKGRFTISQDNAKNTVYLQMNTLKPEDTAMYYCAADRYVYRLVTNWYRPSFYTYWGQGTQVTVSS
notes: also called clone 23
B10: VHH-25 (VHH)
VHH: B1 VHH
notes: also called clone 25

What was measured:
[1] = target: T1, human αvβ3 integrin ITGAVB3 (human, UniProt P06756 31-992; P05106 27-718, limits assumed); test: phage ELISA, coated ITGAVB3, anti-M13-HRP, 490 nm; helper phage control
T1 construct: Recombinant heterodimer used as immunogen, ELISA coating and SPR ligand; also called A5B3; A5b3

[2] = target: T1, human αvβ3 integrin ITGAVB3; test: SPR, αvβ3 integrin immobilised on a CMDH chip (Reichert SR7500DC), nanobody as analyte; fitted kd from the table box in the panel; the box prints no unit, s^-1 is from the head of Table 8, where the text prints this cell as 8.02(2)e4
Method: (§1) Specifically, a CMDH chip (Carboxymethyl Dextran Hydrogel Surface Sensor Chip, Reichert Technologies) coated with Dextran was mounted on an SPR equipment (Reichert SR7500DC system) to perform immobilization of αᵥβ₃ integrin antigen. Then, an analysis of the affinity of the selected antibody based on the concentration was performed.

[3] = target: T1, human αvβ3 integrin ITGAVB3; test: SPR, αvβ3 integrin immobilised on CMDH chip, nanobody as analyte
Method: as §1

[4] = target: T1, human αvβ3 integrin ITGAVB3; test: phage ELISA, coated ITGAVB3, anti-M13-HRP, 490 nm
Method: Further, in order to perform phage ELISA, 2.5 μg/mL to […] of a target protein and a control protein were coated at 4 degrees C. using a coating buffer, and the wells were washed 3 times with 200 μL washing buffer per well. The wells were blocked with 200 μL PBS-M for two hours at room temperature. The blocking buffer was removed and the plate was washed 6 times with the washing solution. Thereafter, 100 μL of phage solution was added to the washing buffer per well and incubation was executed at room temperature for 1 to 2 hours. Then, washing was performed 6 times with washing buffer. HRP-binding anti-M13 antibody (GE healthcare) was diluted with 1:5,000 blocking buffer. 100 μL of diluted conjugate was added onto each well, and incubation was performed at room temperature for 1 hour, and washing was carried out 6 times with washing buffer. The HRP substrate solution was prepared as follows: A stock solution of OPD was prepared by dissolving 22 mg OPD (Sigma) in 100 mL of […] sodium citrate (pH 4.0), and 36 μL 30% H₂O₂ was added to 21 mL of OPL stock solution immediately before the detection step. 100 μL of substrate solution was added to each well and incubation was performed for 30 minutes at room temperature. Plates were analyzed using a micro plate reader set at 490 nm.

[5] = target: T1, human αvβ3 integrin ITGAVB3; test: ELISA of soluble VHH, induced at 37 C; coating not given
[6] = target: T1, human αvβ3 integrin ITGAVB3; test: ELISA of soluble VHH (TG1 lysate), induced at 37 C, coated ITGAVB3
[7] = target: T1, human αvβ3 integrin ITGAVB3; test: ELISA of soluble VHH (TG1 lysate), induced at 30 C, coated ITGAVB3
[8] = target: T1, human αvβ3 integrin ITGAVB3; test: ELISA of soluble VHH, induced at 30 C; coating not given

T1 sequence (P06756 31-992 limits assumed, chain 1 of 2): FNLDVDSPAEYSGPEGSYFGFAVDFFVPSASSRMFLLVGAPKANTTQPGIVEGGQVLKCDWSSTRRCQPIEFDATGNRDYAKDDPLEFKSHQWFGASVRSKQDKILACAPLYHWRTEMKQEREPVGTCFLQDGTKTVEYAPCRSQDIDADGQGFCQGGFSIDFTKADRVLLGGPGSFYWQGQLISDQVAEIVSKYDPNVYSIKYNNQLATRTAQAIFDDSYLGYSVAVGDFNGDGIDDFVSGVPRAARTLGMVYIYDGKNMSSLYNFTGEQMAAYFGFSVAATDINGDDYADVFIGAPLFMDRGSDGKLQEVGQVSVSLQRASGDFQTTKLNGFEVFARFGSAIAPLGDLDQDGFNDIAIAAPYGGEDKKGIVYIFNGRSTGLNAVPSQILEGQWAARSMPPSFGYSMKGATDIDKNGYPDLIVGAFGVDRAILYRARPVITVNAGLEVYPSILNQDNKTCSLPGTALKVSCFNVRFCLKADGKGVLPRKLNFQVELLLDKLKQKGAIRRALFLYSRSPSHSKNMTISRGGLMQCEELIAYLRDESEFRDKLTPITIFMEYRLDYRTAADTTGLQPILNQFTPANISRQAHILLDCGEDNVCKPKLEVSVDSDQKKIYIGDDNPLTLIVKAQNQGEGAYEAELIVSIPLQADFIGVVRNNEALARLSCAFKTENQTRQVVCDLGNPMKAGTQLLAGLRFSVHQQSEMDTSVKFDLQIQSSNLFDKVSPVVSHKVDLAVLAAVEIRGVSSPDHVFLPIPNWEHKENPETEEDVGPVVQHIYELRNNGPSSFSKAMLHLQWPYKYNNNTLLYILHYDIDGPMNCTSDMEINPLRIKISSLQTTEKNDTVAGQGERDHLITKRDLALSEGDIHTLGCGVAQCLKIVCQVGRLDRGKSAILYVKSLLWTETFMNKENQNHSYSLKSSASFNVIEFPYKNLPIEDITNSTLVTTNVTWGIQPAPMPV
T1 sequence (P05106 27-718 limits assumed, chain 2 of 2): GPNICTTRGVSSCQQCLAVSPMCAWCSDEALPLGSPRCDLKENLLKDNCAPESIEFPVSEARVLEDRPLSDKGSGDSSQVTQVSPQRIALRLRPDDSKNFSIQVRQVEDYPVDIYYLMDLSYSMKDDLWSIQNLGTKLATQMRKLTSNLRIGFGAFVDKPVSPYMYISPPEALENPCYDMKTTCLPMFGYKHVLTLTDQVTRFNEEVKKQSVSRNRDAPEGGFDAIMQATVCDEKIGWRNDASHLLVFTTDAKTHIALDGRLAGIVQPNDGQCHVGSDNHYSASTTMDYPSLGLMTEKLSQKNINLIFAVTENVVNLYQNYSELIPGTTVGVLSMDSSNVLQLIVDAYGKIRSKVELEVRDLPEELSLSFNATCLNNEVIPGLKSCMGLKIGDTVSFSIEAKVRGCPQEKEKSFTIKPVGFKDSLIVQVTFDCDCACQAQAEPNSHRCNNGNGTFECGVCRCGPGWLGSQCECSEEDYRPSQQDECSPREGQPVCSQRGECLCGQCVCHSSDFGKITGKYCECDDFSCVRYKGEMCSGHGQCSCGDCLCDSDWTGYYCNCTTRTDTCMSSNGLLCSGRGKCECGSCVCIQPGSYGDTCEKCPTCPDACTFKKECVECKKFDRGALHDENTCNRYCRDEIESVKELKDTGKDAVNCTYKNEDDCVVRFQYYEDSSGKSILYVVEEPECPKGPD

| Molecule | OD490 [1] | koff [2] [s⁻¹] | Kd [3] [nM] | koff [3] [s⁻¹] | kon [3] [M⁻¹ s⁻¹] | OD490 [4] | OD490 [5] | OD490 [6] | OD490 [7] | OD490 [8] |
| --- | --- | --- | --- | --- | --- | --- | --- | --- | --- | --- |
| M13KO7 helper phage | 0.09 | – | – | – | – | – | – | – | – | – |
| B1 | – | 0.000802 | 4.64 | 0.000802 | 173000 | – | – | – | – | – |
| B2 | – | – | – | – | – | 2.07 | 0.119 | 0.64 | 0.334 | 0.148 |
| B3 | – | – | – | – | – | 2.01 | 0.187 | 2 | 2 | 0.161 |
| B4 | – | – | – | – | – | 1.97 | 0.121 | 0.132 | 0.179 | 0.146 |
| B5 | – | – | – | – | – | 1.81 | 0.125 | 0.191 | 0.243 | 0.118 |
| B6 | – | – | – | – | – | 2.07 | 1.02 | 1.68 | 1.75 | 2.02 |
| B7 | – | – | – | – | – | 1.98 | 0.111 | 0.144 | 0.129 | 0.108 |
| B8 | – | – | – | – | – | 2.04 | 0.386 | 1.98 | 1.98 | 1.21 |
| B9 | – | – | – | – | – | 2.04 | 0.113 | 0.16 | 0.179 | 0.141 |
| B10 | – | – | – | – | – | 2.03 | 0.193 | 2.03 | 2.01 | 1.05 |
